Experiments:
[1] = target: T1, rHuman HGF R/c-MET/Fc Chimera, CF (Cat# 358-MT/CF) (human, UniProt P08581 25-932); test: Multispot ECL; Fab 32.5 nM
T1 construct: Bought from R&D Systems; also called HGF R/Fc; hepatocyte growth factor receptor (HGF R/c-Met)
Procedure: (§1) An 150 μl aliquot of 1% Bovine Serum Albumin (BSA) in Tris-buffered Saline Tween (TBST) was added to each well and allowed to incubate for 30 min at 20° C. followed by washing and tap drying to completely remove any residual solution. Subsequently, a 12.5 μl aliquot of 1% BSA TBST was added to each well followed by the addition of a 12.5 μl aliquot of a purified Fab. The plate was sealed and incubated for 1 hour at 20° C. with shaking.
(§2) Detection antibodies were prepared by individually conjugating both goat anti-human Kappa light chain polyclonal antibody (K3502-1MG, Sigma-Aldrich) and goat anti-human Lambda light chain polyclonal antibody (L1645-1 mL, Sigma-Aldrich) with Ruthenium (II) tris-bipyridine-(4-methylsulfone)-N-hydroxysuccinimide (SULFO-TAG NHS-ester, Meso Scale Discovery) according to the manufacturer's instructions. TAG-detection antibody at 25 μl was added to each well and allowed to incubate for 1 hour at 20° C. with shaking. Finally, 15 μl of Read Buffer P with Surfactant (Cat # R92PC-1, Meso Scale Discovery) was added to each well. The electrochemiluminescence was measured using a Sector Imager 2400 (Meso Scale Discovery). Data was analyzed by comparing the ECL signals for an antigen to the blank of each well. A signal to blank ratio of 4 or more was considered a “Hit” Fab.
(§3) To confirm a “Hit” from the initial Multispot ECL screening, a Fab concentration dependent titration was carried out to determine the Fab-antigen binding affinity.

[2] = target: T2, rHuman CD44/Fc Chimera, CF (Cat# 3660-CD) (human, UniProt P16070 21-220); test: Multispot ECL; Fab 32.5 nM
T2 construct: Bought from R&D Systems
Procedure: as §1, §2, §3

[3] = target: T3, rHuman ErbB2/Fc Chimera, CF (Cat# 1129-ER) (human, UniProt P04626 23-652); test: Multispot ECL; Fab 32.5 nM
T3 construct: Bought from R&D Systems; also called human epidermal growth factor 2 receptor (ErbB2)
Procedure: as §1, §2, §3

[4] = target: T4, rHuman EGF R/Fc Chimera, CF (Cat# 344-ER) (human, UniProt P00533 25-645); test: Multispot ECL; Fab 32.5 nM
T4 construct: Bought from R&D Systems; also called epidermal growth factor receptor (EGF R)
Procedure: as §1, §2, §3

[5] = target: T5, Recombinant Human DLL4 (Cat# 1506-D4/CF) (human, UniProt Q9NR61 27-529); test: Multispot ECL; Fab 32.5 nM
T5 construct: Bought from R&D Systems; also called rHuman DLL4; hDLL4
Procedure: as §1, §2, §3

[6] = target: T1, rHuman HGF R/c-MET/Fc Chimera, CF (Cat# …); test: Multispot ECL; Fab 130 nM
Procedure: as §1, §2, §3

[7] = target: T2, rHuman CD44/Fc Chimera, CF (Cat# …); test: Multispot ECL; Fab 130 nM
Procedure: as §1, §2, §3

[8] = target: T6, rHuman IGF-1 sR, (IGF-1 sR), CF (Cat# 391-GR) (human, UniProt P08069 31-932); test: Multispot ECL; Fab 130 nM
T6 construct: Bought from R&D Systems; also called insulin-like growth factor-1 soluble receptor
Procedure: as §1, §2, §3

[9] = target: T7, rHuman Erythropoietin R/Fc Chimera, CF (Cat# 963-ER) (human, UniProt P19235 25-250); test: Multispot ECL; Fab 130 nM
T7 construct: Bought from R&D Systems; also called EPO R/Fc; Epo R/Fc chimera
T7 sequence (looked up): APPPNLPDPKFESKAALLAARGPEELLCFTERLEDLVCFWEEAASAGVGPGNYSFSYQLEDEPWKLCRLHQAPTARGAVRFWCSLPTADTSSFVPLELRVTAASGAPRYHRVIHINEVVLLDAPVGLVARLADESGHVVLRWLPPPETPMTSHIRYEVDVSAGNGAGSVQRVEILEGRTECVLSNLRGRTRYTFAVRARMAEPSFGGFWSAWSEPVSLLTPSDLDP
Procedure: as §1, §2, §3

[10] = target: T3, rHuman ErbB2/Fc Chimera, CF (Cat# …); test: Multispot ECL; Fab 130 nM
Procedure: as §1, §2, §3

[11] = target: T4, rHuman EGF R/Fc Chimera, CF (Cat# …); test: Multispot ECL; Fab 130 nM
Procedure: as §1, §2, §3

[12] = target: T5, Recombinant Human DLL4 (Cat# 1506-D4/CF); test: Multispot ECL; Fab 130 nM
Procedure: as §1, §2, §3

[13] = target: T8, rHuman Notch-1/Fc Chimera, CF (Cat# 3647-TK) (human, UniProt P46531 19-526); test: Multispot ECL; Fab 130 nM
T8 construct: Bought from R&D Systems
Procedure: as §1, §2, §3

ECL signal [1]: 525
ECL signal [2]: 573
ECL signal [3]: 556
ECL signal [4]: 645
ECL signal [5]: 2990
ECL signal [6]: 1880
ECL signal [7]: 1750
ECL signal [8]: 1970
ECL signal [9]: 2150
ECL signal [10]: 1530
ECL signal [11]: 1750
ECL signal [12]: 7740
ECL signal [13]: 1760
B1: Fab VH1-8_IGHD2-2*01_IGHJ6*01 & L12_IGKJ1*01 (Fab, V domains shown)
VH: QVQLVQSGAEVKKPGASVKVSCKASGYTFTSYDINWVRQATGQGLEWMGWMNPNSGNTGYAQKFQGRVTMTRNTSISTAYMELSSLRSEDTAVYYCARGGYCSSTSCYADYYYYYGMDVWGQGTTVTVSS
VL: not shown
